27 molecules from patent US20170224620A1 (Pfizer, published 2017) can be followed below.

Bridges are numbered along the chain shown (N, C = ends). Primed or numbered codes have the meaning given here. Where no end group is shown, it is not given here. Side-chain parts run from the residue outwards. [ ]: non-standard residue; d: D form. Trp(5-OMe) = COc1ccc2[nH]cc(C[C@H](N)C(=O)O)c2c1; Phe(F5) = N[C@@H](Cc1c(F)c(F)c(F)c(F)c1F)C(=O)O; Dip = N[C@H](C(=O)O)C(c1ccccc1)c1ccccc1; Bta = N[C@@H](Cc1csc2ccccc12)C(=O)O; Igl = N[C@H](C(=O)O)C1Cc2ccccc2C1; hPhe = N[C@@H](CCc1ccccc1)C(=O)O; 2Thi = N[C@@H](Cc1cccs1)C(=O)O; DBCO′ = dibenzocyclooctyne; Orn = NCCC[C@H](N)C(=O)O; PEG4′ = not defined here; Pra = C#CC[C@H](N)C(=O)O; Dap = NC[C@H](N)C(=O)O

To fix the notation:
B1: P2-94 (peptide)
peptide: DPCT[hPhe]EVWGRECLQ
modifications: disulfide 3-12; not fully specified (N-terminus)
notes: P2 backbone; also called P2 with Homophenylalanine at W5
B2: P2-88 (peptide)
peptide: DPCT[Phe(F5)]EVWGRECLQ
modifications: disulfide 3-12; not fully specified (N-terminus)
notes: P2 backbone; also called P2 with Pentafluoro Phenylalanine at W5
B3: P2-58 (peptide)
peptide: H-GDP[Orn]TWEVWGREDLQGG[Pra]G-NH2
modifications: lactam 4-13
SMILES: C#CC[C@H](NC(=O)CNC(=O)CNC(=O)[C@H](CCC(N)=O)NC(=O)[C@H](CC(C)C)NC(=O)[C@@H]1CC(=O)NCCC[C@H](NC(=O)[C@@H]2CCCN2C(=O)[C@H](CC(=O)O)NC(=O)CN)C(=O)N[C@@H]([C@@H](C)O)C(=O)N[C@@H](Cc2c[nH]c3ccccc23)C(=O)N[C@@H](CCC(=O)O)C(=O)N[C@@H](C(C)C)C(=O)N[C@@H](Cc2c[nH]c3ccccc23)C(=O)NCC(=O)N[C@@H](CCCNC(=N)N)C(=O)N[C@@H](CCC(=O)O)C(=O)N1)C(=O)NCC(N)=O
B4: P2-65 (peptide)
peptide: H-GDPDTWEVWGRE[Orn]LQGG[Pra]G-NH2
modifications: lactam 4-13
SMILES: C#CC[C@H](NC(=O)CNC(=O)CNC(=O)[C@H](CCC(N)=O)NC(=O)[C@H](CC(C)C)NC(=O)[C@@H]1CCCNC(=O)C[C@H](NC(=O)[C@@H]2CCCN2C(=O)[C@H](CC(=O)O)NC(=O)CN)C(=O)N[C@@H]([C@@H](C)O)C(=O)N[C@@H](Cc2c[nH]c3ccccc23)C(=O)N[C@@H](CCC(=O)O)C(=O)N[C@@H](C(C)C)C(=O)N[C@@H](Cc2c[nH]c3ccccc23)C(=O)NCC(=O)N[C@@H](CCCNC(=N)N)C(=O)N[C@@H](CCC(=O)O)C(=O)N1)C(=O)NCC(N)=O
B5: P2-68 (peptide)
peptide: H-GDPETWEVWGRE[Orn]LQGG[Pra]G-NH2
modifications: lactam 4-13
SMILES: C#CC[C@H](NC(=O)CNC(=O)CNC(=O)[C@H](CCC(N)=O)NC(=O)[C@H](CC(C)C)NC(=O)[C@@H]1CCCNC(=O)CC[C@H](NC(=O)[C@@H]2CCCN2C(=O)[C@H](CC(=O)O)NC(=O)CN)C(=O)N[C@@H]([C@@H](C)O)C(=O)N[C@@H](Cc2c[nH]c3ccccc23)C(=O)N[C@@H](CCC(=O)O)C(=O)N[C@@H](C(C)C)C(=O)N[C@@H](Cc2c[nH]c3ccccc23)C(=O)NCC(=O)N[C@@H](CCCNC(=N)N)C(=O)N[C@@H](CCC(=O)O)C(=O)N1)C(=O)NCC(N)=O
B6: P2-91 (peptide)
peptide: DPCTWEV[Bta]GRECLQ
modifications: disulfide 3-12; not fully specified (N-terminus)
notes: P2 backbone; also called P2 with 3-Benzothienyl Alanine at W8
B7: P2-92 (peptide)
peptide: DPCT[2Thi]EVWGRECLQ
modifications: disulfide 3-12; not fully specified (N-terminus)
notes: P2 backbone; also called P2 with 2-Thienyl Alanine at W5
B8: P2-96 (peptide)
peptide: DPCT[Dip]EVWGRECLQ
modifications: disulfide 3-12; not fully specified (N-terminus)
notes: P2 backbone; also called P2 with Diphenylalanine at W5
B9: P2-90 (peptide)
peptide: DPCTXEVWGRECLQ
modifications: not fully specified; 3-Benzothienyl Alanine at 5; Cys3-Cys12 disulfide
notes: P2 backbone; also called P2 with 3-Benzothienyl Alanine at W5
B10: P2-101 (peptide)
peptide: DPCTWEVXGRECLQ
modifications: not fully specified; 5-Methoxy Tryptophan at 8; Cys3-Cys12 disulfide
notes: P2 backbone; also called P2 with 5-Methoxy Tryptophan at W8
B11: P1-1 (peptide)
peptide: Ac-SECAPLAPDWLSCILGGK(DBCO′)-NH2
modifications: disulfide 3-13
notes: also called P1 alanine scan, AA position 4
B12: P1-3-4 (peptide)
peptide: Ac-SECFPAAPDWLSCIAGGK(DBCO′)-NH2
modifications: disulfide 3-13
notes: also called alanine scan of flanking residues on P1-3, AA position 15
B13: P1-6 (peptide)
peptide: Ac-SECFPLAPDALSCILGGK(DBCO′)-NH2
modifications: disulfide 3-13
notes: also called P1 alanine scan, AA position 10
B14: P1-3-1 (peptide)
peptide: Ac-AECFPAAPDWLSCILGGK(DBCO′)-NH2
modifications: disulfide 3-13
notes: also called alanine scan of flanking residues on P1-3, AA position 1
B15: P1-4 (peptide)
peptide: Ac-SECFPLAADWLSCILGGK(DBCO′)-NH2
modifications: disulfide 3-13
notes: also called P1 alanine scan, AA position 8
B16: P1-2 (peptide)
peptide: Ac-SECFALAPDWLSCILGGK(DBCO′)-NH2
modifications: disulfide 3-13
notes: also called P1 alanine scan, AA position 5
B17: P1-8 (peptide)
peptide: Ac-SECFPLAPDWLACILGGK(DBCO′)-NH2
modifications: disulfide 3-13
notes: also called P1 alanine scan, AA position 12
B18: P1-5 (peptide)
peptide: Ac-SECFPLAPAWLSCILGGK(DBCO′)-NH2
modifications: disulfide 3-13
notes: also called P1 alanine scan, AA position 9
B19: P1-7 (peptide)
peptide: Ac-SECFPLAPDWASCILGGK(DBCO′)-NH2
modifications: disulfide 3-13
notes: also called P1 alanine scan, AA position 11
B20: 5% P2-2 nanoparticle (other)
peptide: Ac-DACTWEVWGRECLQGGK-NH2
modifications: disulfide 3-12; not fully specified (residue 17)
notes: also called P2-2 5% Ligand Density NP; alanine analog NP

The target in one test is T1, Fc tagged recombinant human EGFR (rhEGFR-Fc, R&D systems, Cat#344-ER-050) (human, UniProt P00533 25-645).
T1 construct: Bought protein; also called apo-EGFR; not shown: Fc tag
The test can be described thus: SPR. As to the method: Surface plasmon resonance (SPR) binding studies were carried out on a Biacore T200 instrument (GE Healthcare). […] The contact time and resulting amount of rhEGFR-Fc capture was varied based on the nature of the analyte, namely whether it was a peptide or nanoparticle.
Peptide binding assays were carried out in 10 mM PBS buffer supplemented with 0.05% surfactant P20 and 5% DMSO by volume, at 25° C. Peptides were injected over the rhEGFR-Fc surface for 60 s, followed by dissociation (buffer injection) for 60 s and regeneration with a 10 s pulse of 3M MgCl₂. A fresh rhEGFR-Fc surface was generated for each concentration of each peptide tested. Peptide binding data was analyzed by fitting to a 1:1 Langmuir kinetic model to obtain the on-rate (kₐ), off-rate (kd) and/or equilibrium binding constant (KD) of the interaction.
For orientation: SPR reads the build-up and loss of mass on a sensor chip optically.
For the molecule H-GDPKTWEVWGREELQGG[Pra]G-NH2 (lactam 4-13) [P2-60], the binding result is “no binding”.

With B1, the “KD Relative to P2” value was determined as 9.1 ratio.

With H-GDPDTWEVWGREKLQGG[Pra]G-NH2 (lactam 4-13) [P2-64], the binding result was “no binding”.

Consider B2, for which the “KD Relative to P2” value was 8.5 ratio.

Take B3: the binding result is reported as “no binding”.

As for H-GDP[Dap]TWEVWGREDLQGG[Pra]G-NH2 (lactam 4-13) [P2-59], the binding result was “no binding”.

Consider H-GDPDTWEVWGRE[Dap]LQGG[Pra]G-NH2 (lactam 4-13) [P2-66], for which the binding result was “no binding”.

Regarding DPCTWEVWXRECLQGGGG (free N-terminus; Sar at 9; Cys3-Cys12 disulfide; Par at 17; C-terminal amide) [P2-43], the binding result is “no binding”.

With B4, the binding result is “no binding”.

Turning to B5, the binding result is on record as “no binding”.

Regarding H-GDPETWEVWGRE[Dap]LQGG[Pra]G-NH2 (lactam 4-13) [P2-69], the binding result is “no binding”.

On to B6, for which the “KD Relative to P2” value is 124 ratio.

Take B7: the “KD Relative to P2” value amounted to 15.9 ratio.

With B8, the “KD Relative to P2” value is 8.9 ratio.

For the molecule B9, the “KD Relative to P2” value is 1.6 ratio.

As to B10, the “KD Relative to P2” value was found to be 0.5 ratio.

In another test the target is T1, Fc tagged recombinant human EGFR …. The experiment in a line: EGF competition ELISA, free peptide. The protocol:
An alanine scan was performed on the amino acids within the cyclic portion of the peptide structure to determine which amino acids were critical for binding. Each amino acid within the peptide was individually replaced with alanine. […] Subsequently, an alanine scan of the flanking amino acids on P₁₋₃ was performed.
Take B11: the “Peptide Relative IC50 (normalized to P1)” value was found to be 1.9 ratio.

As to B12, the “Peptide Relative IC50 (normalized to P1)” value amounted to 3.2 ratio.

Turning to B13, the “Peptide Relative IC50 (normalized to P1)” value amounted to 7.1 ratio.

B14: the “Peptide Relative IC50 (normalized to P1)” value is 0.7 ratio.

Turning to B15, the “Peptide Relative IC50 (normalized to P1)” value was 2.7 ratio.

Turning to B16, the “Peptide Relative IC50 (normalized to P1)” value was found to be 11.5 ratio.

For B17, the “Peptide Relative IC50 (normalized to P1)” value is 1 ratio.

Turning to B18, the “Peptide Relative IC50 (normalized to P1)” value was determined as 4.4 ratio.

Consider B19, for which the “Peptide Relative IC50 (normalized to P1)” value was 3.5 ratio.

A further test addresses T2, EGF bound EGFR (rhEGFR-Fc with recombinant human EGF pre-injected in SPR or 50 nM EGF present in ELISA) (human, UniProt P00533 25-645; P01133 971-1023).
T2 construct: Complex of m1 and m5 as target; also called EGFR in the presence of EGF; With EGF; not shown: Fc tag
The experiment in a line: P2 competition ELISA, 5% ligand density NP. Background: In an ELISA, binding on a coated surface is turned into a signal by an enzyme label.
By IC50 is commonly meant the concentration at which inhibition is half-maximal. Regarding B20, the IC50 stood at 3 µg/mL and the “Rel IC50 (against P2 NP)” value came out at 0.7 ratio.

In the case of Ac-DPCT[Igl]EV[Trp(5-OMe)]GRECLQGGK([PEG4′-DBCO′])-NH2 (other, disulfide 3-12; not fully specified, also called aromatic analog NP) [5% P2-102 nanoparticle], the IC50 amounted to 2.6 µg/mL and the “Rel IC50 (against P2 NP)” value was found to be 0.6 ratio.
